In article PMC3347535, “D-Arabinose Methabolism: Characterization of Bifunctional Arabinokinase/Pyrophosphorylase of Leishmania major” (Acta Naturae, 2009):

System: O=P(O)(O)OC1OC[C@@H](O)[C@@H](O)[C@@H]1O
Assay: purified protein
Settings: GDP-D-Arap pyrophosphorylase reaction; GTP co-substrate; exogenous arabinose phosphate; kinetic assay conditions not given

Q: For LmjF16.0480 (Leishmania major), which Km is on record?
A: 67.0 mM
